± gives the uncertainty stated by the source.
B1: Storkhead-box protein 2, residues 64 to 141; numbered along this chain, Q9P2F5 (parent)
chain: SPISQSQFIPLGEILCLAISAMNSARKPVTQEALMEHLTTCFPGVPTPSQEILRHTLNTLVRERKIYPTPDGYFIVTP

Variants of: B1
Assay: abundance fitness (aPCA) (normalised: wild type 0, dead -1); higher = more abundant; growth selection in yeast, the domain comes from the species named
Conditions: Homo sapiens
For S1M, the abundance fitness was -0.227 ± 0.15.
P48R gave an abundance fitness of -0.415 ± 0.035.
Variant P48S has an abundance fitness of -0.418 ± 0.039.
Work on P48T yielded an abundance fitness of -0.357 ± 0.054.
With P48C the abundance fitness was -0.085 ± 0.048.
P48F showed an abundance fitness of -0.141 ± 0.072.
For P48D, the abundance fitness was -0.398 ± 0.055.
M35V showed an abundance fitness of -0.092 ± 0.052.
M35I gave an abundance fitness of 0.044 ± 0.092.
Work on M35S yielded an abundance fitness of 0.005 ± 0.073.
Work on M35G yielded an abundance fitness of -0.049 ± 0.049.
With M35D the abundance fitness was -0.191 ± 0.22.
P43D gave an abundance fitness of -0.119 ± 0.17.
For P43T, the abundance fitness was -0.028 ± 0.067.
With P43E the abundance fitness was -0.006 ± 0.065.
Variant P43V has an abundance fitness of -0.076 ± 0.047.
For T56K, the abundance fitness was -0.052 ± 0.1.
Variant T56A has an abundance fitness of -0.046 ± 0.05.
Work on T56Y yielded an abundance fitness of -0.26 ± 0.23.
Work on E63Y yielded an abundance fitness of -0.033 ± 0.13.
E63P gave an abundance fitness of -1.2 ± 0.11.
With E63K the abundance fitness was 0.011 ± 0.05.
Variant E63W has an abundance fitness of -0.075 ± 0.049.
With E63C the abundance fitness was -0.043 ± 0.055.
E63S showed an abundance fitness of -0.018 ± 0.033.
For A21K, the abundance fitness was 0.051 ± 0.046.
In the case of A21D, the abundance fitness is reported as 0.002 ± 0.079.
Work on A21W yielded an abundance fitness of -0.244 ± 0.091.
A21G gave an abundance fitness of -0.063 ± 0.047.
With R62L the abundance fitness was -0.037 ± 0.034.
For R62E, the abundance fitness was 0.017 ± 0.075.
R62P gave an abundance fitness of -0.944 ± 0.091.
Variant R62A has an abundance fitness of 0.049 ± 0.049.
Work on R62D yielded an abundance fitness of -0.05 ± 0.11.
R62G gave an abundance fitness of -0.008 ± 0.038.
Work on A25H yielded an abundance fitness of -0.001 ± 0.12.
In the case of A25G, the abundance fitness is reported as -0.175 ± 0.044.
A25D gave an abundance fitness of 0.018 ± 0.099.
In the case of A25V, the abundance fitness is reported as -0.033 ± 0.044.
Variant D71Q has an abundance fitness of -0.054 ± 0.075.
D71F showed an abundance fitness of -0.099 ± 0.056.
Work on S49H yielded an abundance fitness of -0.225 ± 0.077.
S49E gave an abundance fitness of -0.24 ± 0.063.
Variant S49L has an abundance fitness of -0.684 ± 0.055.
For S49A, the abundance fitness was -0.109 ± 0.035.
For S49F, the abundance fitness was -0.887 ± 0.1.
Variant I3N has an abundance fitness of -0.207 ± 0.063.
Work on I3W yielded an abundance fitness of -0.44 ± 0.048.
Work on I3M yielded an abundance fitness of -0.047 ± 0.058.
In the case of P46D, the abundance fitness is reported as -0.081 ± 0.075.
For P46V, the abundance fitness was -0.086 ± 0.04.
P46N gave an abundance fitness of -0.124 ± 0.12.
With P46G the abundance fitness was -0.133 ± 0.032.
P46A showed an abundance fitness of -0.079 ± 0.046.
For T69V, the abundance fitness was -0.13 ± 0.044.
T69N showed an abundance fitness of -0.042 ± 0.13.
T69P showed an abundance fitness of -0.703 ± 0.087.
T69D showed an abundance fitness of -0.04 ± 0.11.
T59E gave an abundance fitness of 0.049 ± 0.061.
With T59V the abundance fitness was 0.035 ± 0.035.
In the case of T59G, the abundance fitness is reported as 0.015 ± 0.033.
For T59M, the abundance fitness was -0.023 ± 0.061.
With Q50G the abundance fitness was 0.053 ± 0.044.
Work on Q50F yielded an abundance fitness of 0.013 ± 0.16.
V61C gave an abundance fitness of 0.04 ± 0.078.
In the case of V61Y, the abundance fitness is reported as -0.208 ± 0.13.
V61N gave an abundance fitness of -0.432 ± 0.28.
For V61D, the abundance fitness was -0.186 ± 0.1.
V61F gave an abundance fitness of -0.166 ± 0.1.
Work on V61P yielded an abundance fitness of -1.05 ± 0.14.
V61E gave an abundance fitness of -0.028 ± 0.062.
Work on G12A yielded an abundance fitness of -0.3 ± 0.29.
In the case of G12C, the abundance fitness is reported as -0.135 ± 0.32.
For I75W, the abundance fitness was -0.057 ± 0.049.
I75F gave an abundance fitness of -0.109 ± 0.073.
I75Q showed an abundance fitness of -0.026 ± 0.059.
Work on I75H yielded an abundance fitness of -0.172 ± 0.17.
I75K showed an abundance fitness of -0.219 ± 0.1.
Variant I75G has an abundance fitness of -0.033 ± 0.04.
Variant I14M has an abundance fitness of 0.024 ± 0.15.
With I14L the abundance fitness was -0.035 ± 0.067.
Variant I14R has an abundance fitness of -0.073 ± 0.059.
I14D gave an abundance fitness of -0.258 ± 0.41.
In the case of I14A, the abundance fitness is reported as -0.003 ± 0.057.
For I14S, the abundance fitness was 0.01 ± 0.057.
For I14W, the abundance fitness was -0.105 ± 0.079.
Work on L53H yielded an abundance fitness of -0.756 ± 0.18.
In the case of L53I, the abundance fitness is reported as -0.007 ± 0.11.
In the case of C41I, the abundance fitness is reported as -0.129 ± 0.15.
For C41G, the abundance fitness was 0.019 ± 0.042.
With C41E the abundance fitness was 0.004 ± 0.067.
C41N showed an abundance fitness of -0.024 ± 0.14.
With S20W the abundance fitness was -0.419 ± 0.053.
For S20V, the abundance fitness was -0.171 ± 0.044.
With S20D the abundance fitness was -0.116 ± 0.17.
For S20P, the abundance fitness was -0.405 ± 0.074.
Variant P28R has an abundance fitness of -0.054 ± 0.037.
With P28K the abundance fitness was -0.076 ± 0.1.
With P28F the abundance fitness was -0.187 ± 0.17.
P2R gave an abundance fitness of 0.019 ± 0.029.
With P2K the abundance fitness was -0.137 ± 0.081.
M22L showed an abundance fitness of 0.015 ± 0.036.
M22A gave an abundance fitness of -0.234 ± 0.074.
M22V gave an abundance fitness of -0.354 ± 0.044.
For M22F, the abundance fitness was -0.201 ± 0.075.
Variant M22Y has an abundance fitness of -0.243 ± 0.13.
With M22G the abundance fitness was -0.257 ± 0.036.
With Q7W the abundance fitness was -0.152 ± 0.049.
In the case of Q7L, the abundance fitness is reported as -0.085 ± 0.052.
With Q7V the abundance fitness was -0.064 ± 0.041.
Variant P68L has an abundance fitness of 0.017 ± 0.035.
P68I showed an abundance fitness of -0.046 ± 0.12.
P68Y showed an abundance fitness of -0.141 ± 0.086.
Work on P68T yielded an abundance fitness of 0.04 ± 0.093.
P68V showed an abundance fitness of 0.082 ± 0.036.
E32Y gave an abundance fitness of -0.104 ± 0.11.
For E32D, the abundance fitness was -0.088 ± 0.073.
With E32M the abundance fitness was -0.094 ± 0.081.
Work on E32K yielded an abundance fitness of -0.057 ± 0.081.
With T39F the abundance fitness was -0.099 ± 0.078.
Variant T39V has an abundance fitness of 0.098 ± 0.057.
Work on T39P yielded an abundance fitness of -0.076 ± 0.05.
For T39H, the abundance fitness was -0.044 ± 0.13.
In the case of F42Q, the abundance fitness is reported as -0.661 ± 0.47.
Variant F42A has an abundance fitness of -0.05 ± 0.12.
F42D gave an abundance fitness of 0.273 ± 0.28.
With F42W the abundance fitness was -0.086 ± 0.047.
For V45T, the abundance fitness was -0.031 ± 0.061.
With V45R the abundance fitness was -0.06 ± 0.03.
Variant V45Q has an abundance fitness of -0.007 ± 0.076.
With V45F the abundance fitness was 0.067 ± 0.069.
V45Y gave an abundance fitness of 0.051 ± 0.12.
With H55Y the abundance fitness was -0.181 ± 0.11.
H55I gave an abundance fitness of -0.103 ± 0.12.
I19E gave an abundance fitness of -1 ± 0.15.
Variant I19H has an abundance fitness of -0.852 ± 0.44.
For I19A, the abundance fitness was -0.341 ± 0.055.
With I19W the abundance fitness was -0.825 ± 0.06.
I19T showed an abundance fitness of -0.224 ± 0.06.
Work on I19G yielded an abundance fitness of -1.07 ± 0.12.
In the case of G44W, the abundance fitness is reported as -0.103 ± 0.056.
In the case of G44C, the abundance fitness is reported as -0.046 ± 0.064.
G44V showed an abundance fitness of -0.111 ± 0.035.
G44D showed an abundance fitness of 0.073 ± 0.12.
G44N showed an abundance fitness of 0.024 ± 0.17.
Work on H37K yielded an abundance fitness of -0.164 ± 0.1.
Work on H37P yielded an abundance fitness of -0.802 ± 0.12.
H37T gave an abundance fitness of -0.322 ± 0.11.
For H37Y, the abundance fitness was -0.159 ± 0.083.
Variant H37D has an abundance fitness of -0.259 ± 0.074.
For H37L, the abundance fitness was -0.548 ± 0.049.
Variant I9R has an abundance fitness of 0.03 ± 0.058.
For I9P, the abundance fitness was 0.046 ± 0.071.
I9A gave an abundance fitness of 0.005 ± 0.066.
A18P gave an abundance fitness of -0.887 ± 0.1.
In the case of A18M, the abundance fitness is reported as -0.593 ± 0.17.
Work on A18T yielded an abundance fitness of -0.099 ± 0.081.
Work on A18I yielded an abundance fitness of -0.308 ± 0.16.
Work on R26G yielded an abundance fitness of -0.009 ± 0.037.
In the case of R26D, the abundance fitness is reported as -0.011 ± 0.083.
For R26T, the abundance fitness was -0.005 ± 0.077.
Variant R26Y has an abundance fitness of -0.248 ± 0.11.
Variant E51D has an abundance fitness of 0.028 ± 0.11.
E51F showed an abundance fitness of -0.207 ± 0.1.
With E51Q the abundance fitness was -0.099 ± 0.071.
E51K showed an abundance fitness of 0.003 ± 0.098.
With E51T the abundance fitness was -0.085 ± 0.088.
